These sequences were tested on Escherichia coli TOP10 (assay: shrunken log2 fold change of peptide-encoding DNA abundance (4.5 h post-induction vs induction); higher = less antimicrobial activity (less host growth inhibition)). Conditions: time post-induction: 4.5 h; library: site-saturation at positions 5, 18, 19, 20.
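Also: peptides expressed intracellularly from a pBAD plasmid library in pooled LB shake-flask culture, induced with 0.3% L-arabinose, DNA abundance read by NGS, three biological replicates, DESeq2 with apeglm shrinkage.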

Row | Sequence | shrunken log2 fold change
1 | RRIRHRPPRLPRPRPRPYPNPRP | -0.014
2 | RRIRHRPPRLPRPRPRPYPQPRP | -0.546
3 | RRIRHRPPRLPRPRPRPYPRPRP | -0.27
4 | RRIRHRPPRLPRPRPRPYQIPRP | -0.484
5 | RRIRHRPPRLPRPRPRPYQLPRP | -0.0135
6 | RRIRHRPPRLPRPRPRPYRKPRP | -1.23
7 | RRIRHRPPRLPRPRPRPYSHPRP | -0.129
8 | RRIRHRPPRLPRPRPRPYSSPRP | -0.0579
9 | RRIRHRPPRLPRPRPRPYTKPRP | 0.0561
10 | RRIRHRPPRLPRPRPRPYVHPRP | -0.312
11 | RRIRHRPPRLPRPRPRPYVLPRP | -0.14
12 | RRIRHRPPRLPRPRPRPYWFPRP | -0.963
13 | RRIRHRPPRLPRPRPRPYWMPRP | -1.63
14 | RRIRHRPPRLPRPRPRPYYAPRP | -0.417
15 | RRIRHRPPRLPRPRPRPYYNPRP | -1.28
16 | RRIRHRPPRLPRPRPRPYYSPRP | -0.191
17 | RRIRIRPPRLPRPRPRPAAAPRP | 0.286
18 | RRIRIRPPRLPRPRPRPACIPRP | -0.69
19 | RRIRIRPPRLPRPRPRPACLPRP | -0.228
20 | RRIRIRPPRLPRPRPRPADKPRP | -0.194
21 | RRIRIRPPRLPRPRPRPAEVPRP | -0.041
22 | RRIRIRPPRLPRPRPRPAGYPRP | -0.038
23 | RRIRIRPPRLPRPRPRPAHEPRP | 0.215
24 | RRIRIRPPRLPRPRPRPAHIPRP | -0.063
25 | RRIRIRPPRLPRPRPRPALEPRP | -0.0629

Row | Sequence | shrunken log2 fold change
26 | RRIRIRPPRLPRPRPRPALTPRP | 0.0227
27 | RRIRIRPPRLPRPRPRPAMCPRP | -0.182
28 | RRIRIRPPRLPRPRPRPAMRPRP | 1.37
29 | RRIRIRPPRLPRPRPRPAMSPRP | -0.0178
30 | RRIRIRPPRLPRPRPRPAMTPRP | -0.366
31 | RRIRIRPPRLPRPRPRPAPDPRP | 0.248
32 | RRIRIRPPRLPRPRPRPAPFPRP | 0.271
33 | RRIRIRPPRLPRPRPRPAPWPRP | 0.0917
34 | RRIRIRPPRLPRPRPRPARCPRP | 0.0563
35 | RRIRIRPPRLPRPRPRPASIPRP | -0.361
36 | RRIRIRPPRLPRPRPRPASRPRP | -0.106
37 | RRIRIRPPRLPRPRPRPAVVPRP | -0.0892
38 | RRIRIRPPRLPRPRPRPAWKPRP | 0.123
39 | RRIRIRPPRLPRPRPRPAWNPRP | 0.146
40 | RRIRIRPPRLPRPRPRPCCWPRP | 0.0865
41 | RRIRIRPPRLPRPRPRPCDLPRP | -0.011
42 | RRIRIRPPRLPRPRPRPCDRPRP | -0.563
43 | RRIRIRPPRLPRPRPRPCDTPRP | -0.387
44 | RRIRIRPPRLPRPRPRPCGCPRP | -0.248
45 | RRIRIRPPRLPRPRPRPCHKPRP | -0.16
46 | RRIRIRPPRLPRPRPRPCIHPRP | -0.488
47 | RRIRIRPPRLPRPRPRPCIKPRP | -0.185
48 | RRIRIRPPRLPRPRPRPCIVPRP | -0.562
49 | RRIRIRPPRLPRPRPRPCLEPRP | -0.808
50 | RRIRIRPPRLPRPRPRPCPCPRP | -0.493

Row | Sequence | shrunken log2 fold change
51 | RRIRIRPPRLPRPRPRPCQPPRP | -0.378
52 | RRIRIRPPRLPRPRPRPCQQPRP | -0.0169
53 | RRIRIRPPRLPRPRPRPCRQPRP | 0.112
54 | RRIRIRPPRLPRPRPRPCRSPRP | -0.365
55 | RRIRIRPPRLPRPRPRPCSVPRP | -0.466
56 | RRIRIRPPRLPRPRPRPCTMPRP | -0.0242
57 | RRIRIRPPRLPRPRPRPCVWPRP | -0.242
58 | RRIRIRPPRLPRPRPRPCWIPRP | -0.222
59 | RRIRIRPPRLPRPRPRPCWVPRP | -0.451
60 | RRIRIRPPRLPRPRPRPCYIPRP | -0.27
61 | RRIRIRPPRLPRPRPRPCYSPRP | -0.0549
62 | RRIRIRPPRLPRPRPRPDAQPRP | -0.0523
63 | RRIRIRPPRLPRPRPRPDCAPRP | -0.0601
64 | RRIRIRPPRLPRPRPRPDDHPRP | 0.07
65 | RRIRIRPPRLPRPRPRPDENPRP | 0.108
66 | RRIRIRPPRLPRPRPRPDFLPRP | -0.725
67 | RRIRIRPPRLPRPRPRPDGAPRP | -0.237
68 | RRIRIRPPRLPRPRPRPDGEPRP | 0.0147
69 | RRIRIRPPRLPRPRPRPDIAPRP | -0.659
70 | RRIRIRPPRLPRPRPRPDIQPRP | -0.37
71 | RRIRIRPPRLPRPRPRPDIRPRP | -0.00601
72 | RRIRIRPPRLPRPRPRPDKPPRP | -0.0335
73 | RRIRIRPPRLPRPRPRPDMKPRP | -0.0106
74 | RRIRIRPPRLPRPRPRPDMWPRP | -0.271
75 | RRIRIRPPRLPRPRPRPDNDPRP | -0.115

Row | Sequence | shrunken log2 fold change
76 | RRIRIRPPRLPRPRPRPDNHPRP | -0.0565
77 | RRIRIRPPRLPRPRPRPDNKPRP | -0.703
78 | RRIRIRPPRLPRPRPRPDNNPRP | -0.376
79 | RRIRIRPPRLPRPRPRPDPNPRP | -0.546
80 | RRIRIRPPRLPRPRPRPDPSPRP | -0.0293
81 | RRIRIRPPRLPRPRPRPDQKPRP | -0.0112
82 | RRIRIRPPRLPRPRPRPDRDPRP | -0.0646
83 | RRIRIRPPRLPRPRPRPDSDPRP | -0.0273
84 | RRIRIRPPRLPRPRPRPDYTPRP | -0.00167
85 | RRIRIRPPRLPRPRPRPDYWPRP | -0.195
86 | RRIRIRPPRLPRPRPRPEAEPRP | 0.677
87 | RRIRIRPPRLPRPRPRPEAHPRP | 0.0771
88 | RRIRIRPPRLPRPRPRPEEMPRP | -0.416
89 | RRIRIRPPRLPRPRPRPEFRPRP | 0.239
90 | RRIRIRPPRLPRPRPRPEGQPRP | -0.0492
91 | RRIRIRPPRLPRPRPRPEGWPRP | 0.497
92 | RRIRIRPPRLPRPRPRPEHHPRP | -0.206
93 | RRIRIRPPRLPRPRPRPEHMPRP | -0.0778
94 | RRIRIRPPRLPRPRPRPEIQPRP | -0.171
95 | RRIRIRPPRLPRPRPRPEIRPRP | -0.0172
96 | RRIRIRPPRLPRPRPRPEKDPRP | -0.0191
97 | RRIRIRPPRLPRPRPRPEKQPRP | 0.0192
98 | RRIRIRPPRLPRPRPRPELCPRP | 0.0211
99 | RRIRIRPPRLPRPRPRPELFPRP | 0.23
100 | RRIRIRPPRLPRPRPRPEMIPRP | -0.0257

Row | Sequence | shrunken log2 fold change
101 | RRIRIRPPRLPRPRPRPEMKPRP | -0.037
102 | RRIRIRPPRLPRPRPRPENKPRP | -0.663
103 | RRIRIRPPRLPRPRPRPERPPRP | 0.285
104 | RRIRIRPPRLPRPRPRPESHPRP | -0.0755
105 | RRIRIRPPRLPRPRPRPETFPRP | -0.202
106 | RRIRIRPPRLPRPRPRPETRPRP | -0.0624
107 | RRIRIRPPRLPRPRPRPEVLPRP | -0.0175
108 | RRIRIRPPRLPRPRPRPEVMPRP | -0.195
109 | RRIRIRPPRLPRPRPRPEWLPRP | -0.216
110 | RRIRIRPPRLPRPRPRPEYIPRP | -0.667
111 | RRIRIRPPRLPRPRPRPEYPPRP | -1.05
112 | RRIRIRPPRLPRPRPRPEYQPRP | 0.00783
113 | RRIRIRPPRLPRPRPRPFACPRP | -0.0925
114 | RRIRIRPPRLPRPRPRPFAIPRP | -0.886
115 | RRIRIRPPRLPRPRPRPFASPRP | -0.675
116 | RRIRIRPPRLPRPRPRPFCEPRP | -0.23
117 | RRIRIRPPRLPRPRPRPFCPPRP | -0.463
118 | RRIRIRPPRLPRPRPRPFDFPRP | -0.181
119 | RRIRIRPPRLPRPRPRPFDSPRP | 0.0157
120 | RRIRIRPPRLPRPRPRPFDYPRP | -0.182
121 | RRIRIRPPRLPRPRPRPFEFPRP | -0.00107
122 | RRIRIRPPRLPRPRPRPFEYPRP | -0.709
123 | RRIRIRPPRLPRPRPRPFFHPRP | -0.575
124 | RRIRIRPPRLPRPRPRPFFLPRP | -0.406
125 | RRIRIRPPRLPRPRPRPFHKPRP | -0.196

Row | Sequence | shrunken log2 fold change
126 | RRIRIRPPRLPRPRPRPFHNPRP | -0.213
127 | RRIRIRPPRLPRPRPRPFHRPRP | -0.152
128 | RRIRIRPPRLPRPRPRPFHSPRP | -0.16
129 | RRIRIRPPRLPRPRPRPFIAPRP | -0.719
130 | RRIRIRPPRLPRPRPRPFMTPRP | -1.01
131 | RRIRIRPPRLPRPRPRPFQGPRP | 0.0801
132 | RRIRIRPPRLPRPRPRPFQMPRP | -0.271
133 | RRIRIRPPRLPRPRPRPFSKPRP | -0.05
134 | RRIRIRPPRLPRPRPRPFSNPRP | -0.28
135 | RRIRIRPPRLPRPRPRPFTDPRP | 0.0112
136 | RRIRIRPPRLPRPRPRPFTKPRP | -0.173
137 | RRIRIRPPRLPRPRPRPFVCPRP | -0.797
138 | RRIRIRPPRLPRPRPRPFWNPRP | -0.277
139 | RRIRIRPPRLPRPRPRPGCEPRP | -0.0688
140 | RRIRIRPPRLPRPRPRPGCPPRP | -0.304
141 | RRIRIRPPRLPRPRPRPGEHPRP | -0.0955
142 | RRIRIRPPRLPRPRPRPGHSPRP | 0.00697
143 | RRIRIRPPRLPRPRPRPGHWPRP | 0.0615
144 | RRIRIRPPRLPRPRPRPGIIPRP | -0.0859
145 | RRIRIRPPRLPRPRPRPGIVPRP | -0.399
146 | RRIRIRPPRLPRPRPRPGKPPRP | 0.217
147 | RRIRIRPPRLPRPRPRPGKVPRP | -0.621
148 | RRIRIRPPRLPRPRPRPGLDPRP | 0.0575
149 | RRIRIRPPRLPRPRPRPGLMPRP | -0.0194
150 | RRIRIRPPRLPRPRPRPGNKPRP | -0.569
